Several values for one entry are separate records, joined by “and”; a condition that tells them apart may be missing. Equal values may be shown once.
Tests used:
[1] = target: canine FcRn (FcRn large subunit with canine beta-2-microglobulin) (canine); experiment: SPR pH 5.5, SASA-Fc captured on BSA, FcRn 400 nM
[2] = target: canine FcRn (FcRn large subunit with canine beta-2-microglobulin) (canine); experiment: SPR pH 5.5, SASA-Fc captured on BSA, FcRn 200 nM
[3] = target: canine FcRn (FcRn large subunit with canine beta-2-microglobulin) (canine); experiment: SPR pH 5.5, SASA-Fc captured on BSA, FcRn 200 nM; remark: listed apart in the source
[4] = target: canine FcRn (FcRn large subunit with canine beta-2-microglobulin) (canine); experiment: SPR pH 5.5, SASA-Fc captured on BSA, FcRn 100-800 nM
[5] = target: canine FcRn (FcRn large subunit with canine beta-2-microglobulin) (canine); experiment: SPR pH 6.0, SASA-Fc captured on BSA, FcRn 100-800 nM

| Binder | Kd [2] | koff [2] | kon [2] | Kd [4] | koff [4] | kon [4] | other results |
| --- | --- | --- | --- | --- | --- | --- | --- |
| canine IgGB Fc (CH2-CH3) N434A with N-terminal SASA tag (Fc fusion, part only; not given: SASA tag, not shown: another chain or arm of the molecule; small tags and cut ends) Fc: APEMLGGPSVFIFPPKPKDTLLIARTPEVTCVVVDLDPEDPEVQISWFVDGKQMQTAKTQPREEQFNGTYRVVSVLPIGHQDWLKGKQFTCKVNNKALPSPIERTISKARGQAHQPSVYVLPPSREELSKNTVSLTCLIKDFFPPDIDVEWQSNGQQEPESKYRTTPPQLDEDGSYFLYSKLSVDKSRWQRGDTFICAVMHEALHAHYTQESLSHSPGK | 573 nM and 629 nM | 0.156 s⁻¹ and 0.164 s⁻¹ | 272000 M⁻¹ s⁻¹ and 261000 M⁻¹ s⁻¹ | – | – | – | Kd [1]: 457 nM and 494 nM; WT KD Avg/Variant KD [1]: 1.24 and 1.14; koff [1]: 0.237 s⁻¹ and 0.477 s⁻¹; kon [1]: 518000 M⁻¹ s⁻¹ and 966000 M⁻¹ s⁻¹ |
| canine IgGB Fc (CH2-CH3) T250Q with N-terminal SASA tag (Fc fusion, part only; not given: SASA tag, not shown: another chain or arm of the molecule; small tags and cut ends) Fc: APEMLGGPSVFIFPPKPKDQLLIARTPEVTCVVVDLDPEDPEVQISWFVDGKQMQTAKTQPREEQFNGTYRVVSVLPIGHQDWLKGKQFTCKVNNKALPSPIERTISKARGQAHQPSVYVLPPSREELSKNTVSLTCLIKDFFPPDIDVEWQSNGQQEPESKYRTTPPQLDEDGSYFLYSKLSVDKSRWQRGDTFICAVMHEALHNHYTQESLSHSPGK | – | – | – | – | – | – | Kd [3]: 2590 nM and 2840 nM; koff [3]: 0.258 s⁻¹ and 0.268 s⁻¹; kon [3]: 99600 M⁻¹ s⁻¹ and 94300 M⁻¹ s⁻¹ |
| canine IgGB Fc (CH2-CH3) T250E with N-terminal SASA tag (Fc fusion, part only; not given: SASA tag, not shown: another chain or arm of the molecule; small tags and cut ends) Fc: APEMLGGPSVFIFPPKPKDELLIARTPEVTCVVVDLDPEDPEVQISWFVDGKQMQTAKTQPREEQFNGTYRVVSVLPIGHQDWLKGKQFTCKVNNKALPSPIERTISKARGQAHQPSVYVLPPSREELSKNTVSLTCLIKDFFPPDIDVEWQSNGQQEPESKYRTTPPQLDEDGSYFLYSKLSVDKSRWQRGDTFICAVMHEALHNHYTQESLSHSPGK | – | – | – | – | – | – | Kd [3]: 2480 nM and 1660 nM; koff [3]: 0.284 s⁻¹ and 0.287 s⁻¹; kon [3]: 114000 M⁻¹ s⁻¹ and 172000 M⁻¹ s⁻¹ |
| canine IgGB Fc (CH2-CH3) N434Y with N-terminal SASA tag (Fc fusion, part only; not given: SASA tag, not shown: another chain or arm of the molecule; small tags and cut ends) Fc: APEMLGGPSVFIFPPKPKDTLLIARTPEVTCVVVDLDPEDPEVQISWFVDGKQMQTAKTQPREEQFNGTYRVVSVLPIGHQDWLKGKQFTCKVNNKALPSPIERTISKARGQAHQPSVYVLPPSREELSKNTVSLTCLIKDFFPPDIDVEWQSNGQQEPESKYRTTPPQLDEDGSYFLYSKLSVDKSRWQRGDTFICAVMHEALHYHYTQESLSHSPGK | 15.9 nM | 0.00968 s⁻¹ | 607000 M⁻¹ s⁻¹ | 29.1 nM | 0.0151 s⁻¹ | 520000 M⁻¹ s⁻¹ | – |
| canine IgGB Fc (CH2-CH3) N434W with N-terminal SASA tag (Fc fusion, part only; not given: SASA tag, not shown: another chain or arm of the molecule; small tags and cut ends) Fc: APEMLGGPSVFIFPPKPKDTLLIARTPEVTCVVVDLDPEDPEVQISWFVDGKQMQTAKTQPREEQFNGTYRVVSVLPIGHQDWLKGKQFTCKVNNKALPSPIERTISKARGQAHQPSVYVLPPSREELSKNTVSLTCLIKDFFPPDIDVEWQSNGQQEPESKYRTTPPQLDEDGSYFLYSKLSVDKSRWQRGDTFICAVMHEALHWHYTQESLSHSPGK | 40.4 nM and 75.7 nM | – | – | 101 nM | 0.045 s⁻¹ | 446000 M⁻¹ s⁻¹ | – |
| canine IgGB Fc (CH2-CH3) N434R with N-terminal SASA tag (Fc fusion, part only; not given: SASA tag, not shown: another chain or arm of the molecule; small tags and cut ends) Fc: APEMLGGPSVFIFPPKPKDTLLIARTPEVTCVVVDLDPEDPEVQISWFVDGKQMQTAKTQPREEQFNGTYRVVSVLPIGHQDWLKGKQFTCKVNNKALPSPIERTISKARGQAHQPSVYVLPPSREELSKNTVSLTCLIKDFFPPDIDVEWQSNGQQEPESKYRTTPPQLDEDGSYFLYSKLSVDKSRWQRGDTFICAVMHEALHRHYTQESLSHSPGK | 107 nM and 159 nM | 0.0524 s⁻¹ and 0.0633 s⁻¹ | 488000 M⁻¹ s⁻¹ and 399000 M⁻¹ s⁻¹ | 182 nM | 0.0801 s⁻¹ | 440000 M⁻¹ s⁻¹ | – |
| canine IgGB Fc (CH2-CH3) N434S with N-terminal SASA tag (Fc fusion, part only; not given: SASA tag, not shown: another chain or arm of the molecule; small tags and cut ends) Fc: APEMLGGPSVFIFPPKPKDTLLIARTPEVTCVVVDLDPEDPEVQISWFVDGKQMQTAKTQPREEQFNGTYRVVSVLPIGHQDWLKGKQFTCKVNNKALPSPIERTISKARGQAHQPSVYVLPPSREELSKNTVSLTCLIKDFFPPDIDVEWQSNGQQEPESKYRTTPPQLDEDGSYFLYSKLSVDKSRWQRGDTFICAVMHEALHSHYTQESLSHSPGK | 924 nM and 1050 nM | 0.207 s⁻¹ and 0.209 s⁻¹ | 225000 M⁻¹ s⁻¹ and 199000 M⁻¹ s⁻¹ | – | – | – | – |
| canine IgGB Fc (CH2-CH3) YTE variant (L252Y/A254T/T256E) with N-terminal SASA tag (Fc fusion, part only; not given: SASA tag, not shown: another chain or arm of the molecule; small tags and cut ends) Fc: APEMLGGPSVFIFPPKPKDTLYITREPEVTCVVVDLDPEDPEVQISWFVDGKQMQTAKTQPREEQFNGTYRVVSVLPIGHQDWLKGKQFTCKVNNKALPSPIERTISKARGQAHQPSVYVLPPSREELSKNTVSLTCLIKDFFPPDIDVEWQSNGQQEPESKYRTTPPQLDEDGSYFLYSKLSVDKSRWQRGDTFICAVMHEALHNHYTQESLSHSPGK | – | – | – | 184 nM | 0.046 s⁻¹ | 250000 M⁻¹ s⁻¹ | Kd [5]: 210 nM; koff [5]: 0.0659 s⁻¹; kon [5]: 314000 M⁻¹ s⁻¹ |
